Assay results taken from PMC10047488.

Legend:
[1] = target: Gal4 DNA-binding domain fusion of HSD11B1L-181 fragment H2 (amino acids 92-181) (human); assay: two-hybrid; yeast two-hybrid based growth assay: diploids spotted in serial dilution on SD/-Leu/-Trp or SD/-Ade/-His/-Leu/-Trp plates with 0, 1, 5 or 10 uM PMN (peiminine), 30 °C, 3 days; and OD600 in liquid selective medium every 12 h for 48 h
[2] = target: Gal4 DNA-binding domain fusion of parkin fragment P2 (amino acids 141-326) (human) (UniProt O60260); assay: as above

Chain of Gal4 DNA-binding domain fusion of HSD11B1L-181 fragment H2 (amino acids 92-181) (human) (Q7Z5J1 92-181): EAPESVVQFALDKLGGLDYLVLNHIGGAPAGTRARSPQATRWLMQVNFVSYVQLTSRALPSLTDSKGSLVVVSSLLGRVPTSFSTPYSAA

| reduction of the growth rate in selective medium after 48 h, 10 mM PMN group against the DMSO group [1] | reduction of the growth rate in selective medium after 48 h, 10 uM PMN group against the DMSO group [2] | Substance |
| --- | --- | --- |
| 93% |  | Gal4 activation domain fusion of parkin fragment P2 (amino acids 141-326) (from UniProt O60260-1 141-326) (domain or fragment) |
|  | 95% | Gal4 activation domain fusion of HSD11B1L-181 fragment H2 (amino acids 92-181) (domain or fragment) |
